Data as given in article PMC7099005, “Function-based high-throughput screening for antibody antagonists and agonists against G protein-coupled receptors” (Communications Biology, 2020).

B1: sdAb antagonist JN411 (VHH)
VHH: HVQLVESGGGSVQAGGSLRLTCAASGLAYSRTCMGWFRQAPGKEREVVATIRRDGTTTYADSVKGRFTISRDNTRNTLALQMNSLKPEDSAMYYCAAVWVALGVPTSVCPSEYKFWGQGTLVTVSS
B2: sdAb antagonist JN400 (VHH)
VHH: QVQLVESGGGSVQSGGSLRLSCAASGSTYRSHCMGWFRQAPGKEREEVAIMTRSRGTSYADSVKGRFTISQDNTKNILYLQMNSLKPEDTAMYYCAAVPRAGIGDGGYCKWNMKDSGSWGQGTLVTVSS
B3: sdAb antagonist JN413 (VHH)
VHH: DVQLVESGGGSVQSGGSLRLSCAASGSTYRSHCMGWFRQAPGKEREEVAIMTRSRGTSYADSVKGRFTISQDNTKNILYLQMNSLKPEDTAMYYCAAVPRAGIGDGAYCKWNMKDSGSWGQGTLVTVSS
B4: sdAb antagonist JN402 (VHH)
VHH: QVQLVESGGGSVQAGGSLRLSCAASGSTYSSHCMGWFRQAPGKEREEVALMTRARGTSYADSVKGRFTISQDNTKNILYLQMNSLKPEDTAMYYCAAVPRAGIETGAYCKWNMKDSGSWGQGTLVTVSS
B5: sdAb antagonist JN414 (VHH)
VHH: QVQLVESGGGSVQSGGSLTLSCAASGSTYSSHCMGWFRQAPGKEREGVALMTRSRGTSYADSVKGRFTISQDNTKNILYLQMNSLKPEDTAMYYCAAVPRAGIESGAYCKWNMKDSGSWGQGTLVTVSS
B6: sdAb antagonist JN401 (VHH)
VHH: HVQLVESGGGSVQSGGSLRLSCVASGITFSLYCMYWFRQAPGKEREAVASIRSTGATVYGDSVKGRFTISRDSAKNTLYLQMNSLNPEDTAMYYCAAAKKMLYGPGCGSYKDWGQGIQVTVSS
B7: sdAb antagonist JN406 (VHH)
VHH: EVQLVESGGGSVQSGGSLRLSCAASGSTYRSHCMGWFRQAPGKEREGVAIMTSRGTTYADSVKGRFTISQDNTKNIFYLQMNSLKPEDTAMYYCAAVPRAGIGDGAFCKWNMKDSGSWGQGTLVTVSS
B8: sdAb antagonist JN412 (VHH)
VHH: HVQLVESGGGSVQAGGSLRLSCAASGSTYRSHCMGWFRQAPGKEREGVAIMTSRGTTYADSVKGRFTISQDNTKNIFYLQMNSLKPEDTAMYYCAAVPRAGIGDGAFCKWNMKDSGSWGQGTLVTVSS
B9: sdAb antagonist JN409 (VHH)
VHH: QVQLVESGGGSVQSGGSLRLSCAASGDTSSRSCMGWFRQAPGKEREWVGRILNAGITSYADSVKGRFTISQDNVKNTLYLQMNSLNSEDTAIYYCAAGRTSYAGSWYCRYNYWGQGTQVTVSS
B10: sdAb agonist JN300 (VHH)
VHH: HVQLVESGGGSVQAGGSLRLSCAASGYVGSMGWFRQAPGKDREGVAAFDFDGRAKHADSVKGRFTISRDNAKNTLYLQMNNLKPEDTAMYYCARSARQLLMLSHNPSDFGYWGQGTQVTVSS
notes: camelid sdAb from a camel immunised with human APJ nanodiscs; source: FreeStyle 293F, transient (pTT5), purified (Ni-NTA)
B11: sdAb antagonist JN404 (VHH)
VHH: QVQLVESGGGSVQAGGSLTLSCVGSGFSWSLNCMSWFRQAPGSEREGVAIFYSETGGAYYADSVEGRFSISQVNAGNTVLLRMNSLRPEDTAMYYCAAGYGCGSTESWWTYDYIFWGQGTLVTVSS
notes: as for B10

Target: T1, human apelin receptor (APJ), wild type (Homo sapiens, UniProt P35414)
T1 sequence (P35414 whole entry): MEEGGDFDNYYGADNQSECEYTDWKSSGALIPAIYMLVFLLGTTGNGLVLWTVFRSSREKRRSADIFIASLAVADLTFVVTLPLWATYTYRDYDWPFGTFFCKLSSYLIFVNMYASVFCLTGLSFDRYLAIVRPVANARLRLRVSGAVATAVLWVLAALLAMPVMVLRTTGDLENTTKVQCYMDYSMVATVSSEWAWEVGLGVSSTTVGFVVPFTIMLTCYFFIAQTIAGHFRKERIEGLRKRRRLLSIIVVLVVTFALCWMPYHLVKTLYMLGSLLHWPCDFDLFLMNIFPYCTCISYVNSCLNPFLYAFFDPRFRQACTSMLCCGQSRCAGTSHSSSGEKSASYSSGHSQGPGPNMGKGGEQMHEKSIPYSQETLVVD
Experiment: cell-based or functional assay
Settings: not given

B1 and B2 cannot be ordered by “IC50 of soluble sdAb in APJ PathHunter β-arrestin assay, antagonist mode (apelin 13 at EC80; blocks apelin 13 with APJ)” value (“IC50 of soluble sdAb” below): less than 200 nM for the first, less than 200 nM for the second.

B3 and B4 cannot be ordered by “IC50 of soluble sdAb” value: less than 200 nM for the first, less than 200 nM for the second.

First: B5
Second: B6
The “IC50 of soluble sdAb” value of the first is lower: less than 200 nM for the first, greater than 200 nM for the second.

B7 and B8 cannot be ordered by “IC50 of soluble sdAb” value: less than 200 nM for the first, less than 200 nM for the second.

In the case of B9, the “IC50 of soluble sdAb” value is reported as greater than 200 nM.

Target: T1, human apelin receptor (APJ), wild type
Experiment: flow cytometry on cells; 2 x 10^5 HEK293FT cells stably expressing HA-tagged huAPJ or its mutants stained with 250 nM soluble sdAb at 4 °C for 1 h; mouse anti-his antibody and Alexa Fluor 488 goat anti-mouse; sdAb GeoMean relative to anti-HA staining, normalised to WT APJ
Settings: one partner purified

B10: binds.
B11: binds.
